In test [1] the test system is MARCKS protein, a well-established target of PKC. Kind of test: Phosphorylation of MARCKS in cOpn5-expressing HEK 293T cells. It is filed as cell-based. The conditions noted are these: normalized to α-tubulin; PKC activity-dependent. On the procedure:
Whether heterologous expression of the Opn5 orthologs from chicken, turtles, humans and mice (which share 80-90% protein sequence identity) have the capacity to mediate blue light-induced Gq signaling activation within HEK 293T cells is tested (FIG. 1a and table 7). Blue light for stimulation and the red intracellular calcium indicator Calbryte™ 630 AM dye are used to monitor the relative Ca^2+ response (FIG. 1b).
g, Phosphorylation of MARCKS in cOpn5-expressing HEK 293T cells in the control group (no light stimulation), the light stimulation group, and light+staurosporine (ST, PKC inhibitor) group. The amount of p-MARCKS in the same fraction was normalized to the amount of α-tubulin. **P=0.0096, ***P=0.0004; Tukey's multiple comparisons test.
e, One representative of phosphorylation of MARCKS in cOpn5-expressing HEK 293T cells in the control group (no light stimulation), the light stimulation group, and light+staurosporine group. The amount of p-MARCKS in the same fraction was normalized to the amount of α-tubulin.

Test [2] relates to GCaMP7b-expressing neurons in mouse S1 cortex. Kind of test: In vivo two-photon neuron calcium imaging following cOpn5-mediated astrocyte activation. To be noted: cOpn5-mediated astrocytes activation; N=193 neurons. On the procedure: Astrocytes release ATP and other gliotransmitters also act on neuronal receptors to modulate neuron activity. Two-photon imaging of neuronal Ca^2+ signals with cOpn5-mediated astrocytes activation from head-fixed awake, behaving mice, is performed (FIG. 6e). cOpn5-expressing cells (n=406) colocalize with GFAP-staining (n=397), but not GCaMP7b-expressing neurons (FIG. 6f).
e, Schematic diagram of the experimental setup for in vivo two-photon imaging (920 nm) of neuron calcium imaging following cOpn5-mediated astrocyte activation. Images show the expression of cOpn5 (red) in astrocytes and the expression of a GCaMP7b (green) in […] the mouse S1 cortex. Scale bar, 100 μm.
h, Calcium events analysis of GCaMP7b-expressing neurons in 0-5 min and 15-20 min, coupled with cOpn5-mediated astrocytes activation. N=193 neurons, ****P<0.0001, Unpaired t test.

In test [3] the test system is astrocytes within the mouse S1 cortex. Kind of test: In vivo two-photon imaging (920 nm) of ATP release (GRABATP sensor) following astrocyte activation. How it is done: The performance of cOpn5-mediated optogenetics in vivo is tested. Astrocytes represent an important population of non-excitable cells in the central nervous system, over which optogenetic tools have achieved only limited success to date^42. ATP is known as a messenger for inter-astrocyte communication; however, the real-time impacts of intracellular Ca^2+ on ATP release have not been visualized. Ultrasensitive GPCR Activation-Based ATP sensor GRABATP is used to monitor changes in extracellular ATP levels. Specifically, cOpn5 and the GRABATP sensor are expressed in the mouse S1 sensory cortex following the infusion of AAV vectors containing the GfaABC1D promoter (FIG. 6a), which is commonly used to drive gene expression in astrocytes.
Two-photon imaging of GRABATP signals from head-fixed awake, behaving mice is performed (FIG. 6a). It is initially expected that, in addition to the 920 nm light from pulsed laser for two-photon imaging, blue light pulses would be required to stimulate ATP signals. Strikingly, the 920 nm light itself, delivers for imaging, triggered massive ATP flashes in the cOpn5- and GRABATP-expressing mice, but not in mice that expressed the ATP sensor but lacked cOpn5 expression. Individual ATP flashes typically range in diameters of 20-100 μm and lasted for ˜1 min. The flash frequency gradually increases following ˜1 min of initial quiescence and peaked at the level of ˜50 flashes per min within the imaging area (640×640 μm^2) in ˜5 min (FIG. 6b, c and FIG. 7a). Moreover, high-frequency ATP flashes also occurs in the repeated trials (FIG. 7b).
a, Schematic diagram of the experimental setup for in vivo two-photon imaging (920 nm) of ATP release following cOpn5-mediated astrocyte activation. Images show the expression of cOpn5 (red) in astrocytes and the expression of a GRABATP sensor (green) in astrocytes within the mouse S1 cortex. Scale bar, 100 μm.

The test system of test [4] is LH GABAergic neurons of VGAT-Cre mice. Put plainly: Optogenetics and food intake assay. It is filed as in vivo, mouse. To be noted: 20 Hz; 5 ms/pulse; 473 nm; 0.75 mW; vs EGFP-expressing control mice. On the procedure: Finally, the utility of cOpn5-mediated optogenetics for modulating animal behavior is assessed. The lateral hypothalamus (LH) is a brain center with known functions in reward processing and feeding behaviors^54,55. cOpn5 is expressed in the LH GABAergic neurons of VGAT-Cre mice and implanted optical fibers to deliver light pulses into the LH of freely behaving mice (FIG. 8g). […] Electrophysiological recordings on LH and ZI cOpn5-expressing neurons are performed to characterize the response profiles. The injection sites and placement of optical fibers are confirmed by whole brain slices (FIG. 10a-c). […] Thus, cOpn5 is effective for rapidly, accurately, and reversibly modulating animal behavioral states.
g, Schematic diagram of the experimental setup for optogenetics and food intake assay. cOpn5-EGFP was expressed in GABAergic neurons within the lateral hypothalamus (LH) of VGAT-Cre mice. EGFP was expressed as a control.
h, Summary of light-induced (20 Hz; 5 ms/pulse; 473 nm; 0.75 mW output from the fiber tip), cOpn5-mediated activation of eating behaviors. ***P=0.0003; n.s., non-significant; n=6 mice; unpaired t test. Error bars indicate S.E.M.

Test [5] concerns neurons in slice preparations of the motor cortex, hippocampus, and dorsal striatum. Kind of test: Whole-cell patch-clamp recording of cOpn5-expressing neurons in slices. It is filed as cell-based, mouse. The text has this:
The effect of light-induced cOpn5 activation on the electrophysiological properties of neurons in slice preparations of the motor cortex, hippocampus, and dorsal striatum is next investigated (FIG. 8d). Two types of activation patterns are observed. In a majority of recorded neurons, blue light pulses induce a small depolarizing current (˜20 pA) in the voltage-clamp mode, and induce delayed-yet-vigorous firing of action potentials in the current-clamp mode (FIG. 8e, left, n=12 neurons). […] In the other subset of neurons, brief light pulses rapidly evoked strong inward currents (100-1000 pA) and drove bursting firing of action potentials (FIG. 8e, right, n=6 neurons). […] Of note, unlike generated by ChR2 optogenetics^53, the action potential evoked by cOpn5 photostimulation is not time-locked to light pulses.
d, Schematic diagram depicts optogenetic stimulation and whole-cell patch-clamp recording of cOpn5-expressing neurons in the cortex, striatum and hippocampus.
(In general: In patch-clamp work, channel activity is measured electrically.)

Where [6] appears, read: cOpn5- and GRABATP-expressing mice, 920 nm light.

B1: cOpn5: Chicken (Gallus gallus) Opn5 (neuropsin) ortholog, SEQ ID NO:1, GenBank NM_001130743.1 (protein, listed as Gallus lafayetii)
chain: MSGMASDCNSSSQEEYLPHYVQQEDPFASKLSREADIIAGFYLTVIGILSTLGNGYVIFMSSKRKKKLRPAEIMTVNLAVCDLGISVVGKPFSIISFFSHRWIFGWMGCRWYGWAGFFFGCGSLITMTAVSLDRYLKICHLAYGTWLKRHHAFICLALIWAYATFWATVPFAGVGSYAPEPFGTSCTLDWWLAQASVAGQAFVLSILFFCLLFPTAVIVFSYVKIILKVKSSTKEVAHYDTRIQNSHILEMKLTKVAMLICAGFLIAWIPYAVVSVWSAFGQPDSVPIQFSVVPTLLAKSAAMYNPIIYQVIDCKFACCRSGGPKTLQKKSSLKESRMYTLSSHRDSAALSGTQLEV
For B1, the “blue light-triggered phosphorylation of MARCKS protein” value in test [1] is “triggers the phosphorylation of MARCKS protein”. The “neuron activity, 15-20 min compared to 0-5 min” value in test [2] is on record as “significantly elevates neuron activity”. Besides, in test [3] (cOpn5- and GRABATP-expressing mice), the “initial quiescence before flash frequency increases” value is reported as roughly 1 min. Besides, in test [3] (setting [6]), the “diameter of individual ATP flashes” value is 20-100 μm and the “duration of individual ATP flashes” value is recorded as roughly 1 min. The “time to peak ATP flash frequency” value in test [3] (cOpn5-expressing mice) is on record as roughly 5 min. Further, the “ATP flash frequency versus proinflammatory (LPS) treatment of non-cOpn5-expressing mice” value in test [3] (mouse, in vivo) is recorded as roughly 25 times. Also, in test [3] (pulsed laser for two-photon imaging), the two-photon activation wavelength is no less than 920 nm. In addition, the “peak ATP flash frequency” value in test [3] (within the imaging area (640×640 μm2), cOpn5-expressing mice) was roughly 50 flashes per min. Moreover, in test [4], the “food intake on light stimulation” value is given as “significant increase in food intake”. In test [5] (1 Hz, 5 s, n=18), the “firing rate of neurons after pulsed 473 nm light stimulation” value is “increased”. Also, the “firing rate across repetitive trials of light stimulation” value in test [5] (10 ms/pulse at 10 Hz) is recorded as “non-attenuated”. Further, in test [5] (majority-type neurons), the “spike latency after the initial light pulse, higher frequencies of light pulses” value was roughly 3 s and the “spike latency after the initial light pulse, lower frequency of light pulses” value is roughly 5 s. Also, the “inward currents evoked by brief light pulses” value in test [5] (other subset of neurons (n=6)) was 100-1000 pA. For the same molecule, in test [5] (voltage-clamp, majority of recorded neurons (n=12)), the “depolarizing current induced by blue light pulses” value was roughly 20 pA.

Source of the values: patent publication US20250011391A1, “ULTRA LIGHT-SENSITIVE NEUROPSIN-BASED OPTOGENETIC TOOL FOR ACTIVATING G q-COUPLED SIGNALING AND/OR ACTIVATING CELLS” (GENANS BIOTECHNOLOGY CO., LTD, priority 2021, published 2025).
